Legend:
FAS-IC = target: T1, FAS-IC (Homo sapiens, UniProt P25445); assay: Two-hybrid test of MORT-1 binding (FIG. 1), human Fas-IC; conditions: transfected SFY526 yeasts
T1 construct: the FAS-IC extends-from amino acid residues 175-319 of the intact FAS-R; expressed in transfected cells; host or cells: SFY526 yeast
T1 sequence (P25445 191-335): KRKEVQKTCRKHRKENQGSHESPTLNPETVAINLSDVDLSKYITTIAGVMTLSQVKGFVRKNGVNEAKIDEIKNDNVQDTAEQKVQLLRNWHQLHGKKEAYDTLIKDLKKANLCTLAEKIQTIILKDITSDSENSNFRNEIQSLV
Text: To isolate proteins interacting with the intracellular domain of the FAS-R, the yeast two-hybrid system was used (Fields and Song, 1989). […] In this system, the genes for the candidate interacting proteins are cloned into separate expression vectors. In one expression vector, the sequence of the one candidate protein is cloned in phase with the sequence of the GAL4 DNA-binding domain to generate a hybrid protein with the GAL4 DNA-binding-domain, and in the other vector, the sequence of the second candidate protein is cloned in phase with the sequence of the GAL4 activation domain to generate a hybrid protein with the GAL4-activation domain. The two hybrid vectors are then co-transformed into a yeast host strain having a lacZ or HIS3 reporter gene under the control of upstream GAL4 binding sites. Only those transformed host cells (cotransformants) in which the two hybrid proteins are expressed and are capable of interacting with each other, will be capable of expressing the reporter gene. In the case of the lacZ reporter gene, host cells expressing this gene will become blue in color when X-gal is added to the cultures. […]
In FIG. 1, there is depicted the interaction of the proteins encoded by the Gal4 DNA binding domain and activation-domain constructs (pGBT9 and pGAD-GH) within transfected SFY526 yeasts as assessed by β-galactosidase expression filter assay. […]

MORT-1 = target: T2, MORT-1 (Homo sapiens, UniProt Q13158, G32V); assay: Two-hybrid test (FIG. 1), binding to full-length MORT-1; set-up: expressed in transfected cells; host or cells: SFY526 yeast
T2 sequence (Q13158 with tags, fused parts or gaps G32V): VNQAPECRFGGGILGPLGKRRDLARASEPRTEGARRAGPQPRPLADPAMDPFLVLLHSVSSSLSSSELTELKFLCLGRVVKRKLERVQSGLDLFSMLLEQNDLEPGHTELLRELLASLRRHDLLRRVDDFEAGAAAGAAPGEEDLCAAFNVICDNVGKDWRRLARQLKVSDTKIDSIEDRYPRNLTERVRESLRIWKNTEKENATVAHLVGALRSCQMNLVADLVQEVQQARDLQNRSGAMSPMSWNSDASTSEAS
Text: To isolate proteins interacting with the intracellular domain of the FAS-R, the yeast two-hybrid system was used (Fields and Song, 1989). […] In this system, the genes for the candidate interacting proteins are cloned into separate expression vectors. In one expression vector, the sequence of the one candidate protein is cloned in phase with the sequence of the GAL4 DNA-binding domain to generate a hybrid protein with the GAL4 DNA-binding-domain, and in the other vector, the sequence of the second candidate protein is cloned in phase with the sequence of the GAL4 activation domain to generate a hybrid protein with the GAL4-activation domain. The two hybrid vectors are then co-transformed into a yeast host strain having a lacZ or HIS3 reporter gene under the control of upstream GAL4 binding sites. Only those transformed host cells (cotransformants) in which the two hybrid proteins are expressed and are capable of interacting with each other, will be capable of expressing the reporter gene. In the case of the lacZ reporter gene, host cells expressing this gene will become blue in color when X-gal is added to the cultures.
(b) retransforming the plasmid DNA and original FAS-IC hybrid plasmid and control plasmids described in (a) into yeast host cells of strain SFY526 and determining the LACZ^+ activity (effectivity of β-gal formation, i.e., blue color formation).
In FIG. 1, there is depicted the interaction of the proteins encoded by the Gal4 DNA binding domain and activation-domain constructs (pGBT9 and pGAD-GH) within transfected SFY526 yeasts as assessed by β-galactosidase expression filter assay. The DNA-binding-domain constructs included four constructs of the human Fas-IC, four constructs of the mouse Fas-IC including two full-length constructs having […] or Ile to Ala replacement mutations at position 225 (I225N and I225A, respectively), and three MORT-1 constructs, all of which are shown schematically on the left hand side of FIG. 1. […]

[1] = tested on: Fas/APO1 cytotoxicity (p55-Fas chimera) in 293-EBNA cells; assay type: cell-based, human; conditions: co-transfection
Description: In brief, 293-EBNA cells, MCF7 human breast carcinoma cells and HeLa HtTA-1 cells were grown in Dulbecco's modified Eagle's minimal essential medium supplemented with 10% fetal calf serum, nonessential amino acids, 100 U/ml penicillin and 100 μg/ml streptomycin. Cell tissue culture dishes (5×10^5 293-EBNA cells, 3×10^5 s MCF7 cells or 3×10^5 HeLa cells in 6-cm dishes) were transiently transfected, using the calcium phosphate precipitation method, with the cDNAs of the indicated proteins together with the β-galactosidase expression vector. In the experiments presented in FIGS. 14A-D and 15, each dish was transfected with 3.5 μg of the indicated MACH construct and 1.5 μg of pSV-β-gal. In the experiments presented in FIGS. 16A-D and 17-19, each dish was transfected with 2.5 μg of the indicated MACH or MORT1 construct (or, as control, empty vector) and 1.5 μg of pSV-β-gal. The cells were rinsed 6 to 10 h after transfection. The 293-EBNA and MCF7 cells were incubated for a further 18 h without additional treatment. […] The extent of cell death at the end of the incubation periods was assessed by determination of β-galactosidase expression, as described by Kumar et al, 1994. […]
In particular, FIGS. 16A-D show morphology of 293-EBNA cells in which cell death was induced by transient expression of a chimera comprised of the extracellular domain of the p55-R (amino acids 1-168) fused to the transmembrane and intracellular domains of Fas/APO1 (amino acids 153-319) (p55-Fas chimera) (FIGS. 16A and 16B), or by expression of the p55-R (FIGS. 16C and 16D), and of cells that were protected from these cytotoxic effects by their simultaneous transfection with MACHα1 (C360S) (FIGS. 16B and 16D). […] FIG. 17 illustrates the quantification of death induced in 293-EBNA cells by their transfection with p55-Fas chimera or with p55-R, together with an empty vector, a MORT1 deletion mutant lacking the MACH-binding region (MORT1 (92-208)), or MACHα molecules containing a nonfunctional CED3/ICE region. […] Data are from at least two independent experiments and are expressed as in FIGS. 14A-F and 15.

B1: MORT-1: Mediator of Receptor-induced Toxicity; protein binding the intracellular domain of FAS-R, SEQ ID NO:2 (protein)
chain: T2 sequence (Q13158 with tags, fused parts or gaps G32V)
FAS-IC
  binding to human Fas-IC in two-hybrid test: binds
MORT-1
  binding to full-length MORT-1 in two-hybrid test: binds to itself

B2: MACHα1 (C360S): MACHα1 mutant in which the catalytic cysteine Cys360 is replaced by Ser (protein)
chain: MDFSRNLYDIGEQLDSEDLASLKFLSLDYIPQRKQEPIKDALMLFQRLQEKRMLEESNLSFLKELLFRINRLDLLITYLNTRKEEMERELQTPGRAQISAYRVMLYQISEEVSRSELRSFKFLLQEEISKCKLDDDMNLLDIFIEMEKRVILGEGKLDILKRVCAQINKSLLKIINDYEEFSKERSSSLEGSPDEFSNGEELCGVMTISDSPREQDSESQTLDKVYQMKSKPRGYCLIINNHNFAKAREKVPKLHSIRDRNGTHLDAGALTTTFEELHFEIKPHDDCTVEQIYEILKIYQLMDHSNMDCFICCILSHGDKGIIYGTDGQEAPIYELTSQFTGLKCPSLAGKPKVFFIQASQGDNYQKGIPVETDSEEQPYLEMDLSSPQTRYIPDEADFLLGMATVNNCVSYRNPAEGTWYIQSLCQSLRERCPRGDDILTILTEVNYEVSNKDDKKNMGKQMPQPTFTLRKKLVFPSD
[1]
  protection against Fas/APO1 cytotoxicity (p55-Fas chimera): protected
